Format in all cases: cell-based
One assay deals with U937 cells. Briefly: Chemotaxis of U937 cells. To be noted: for migration (chemotaxis) of U937 cells: C19, C27, RANTES: U937 cells stimulated by 30 ng/ml IFN-γ. On the procedure:
The chemotaxis assay was performed using a 48-well microchemotaxis chamber (Neutroprobe, Cabin John, Md., U.S.A.). U937 cells were stimulated by 30 ng/ml IFN-γ for 4 days because IFN-γ could increase the expression of chemokine receptors CCR1, CCR3, and CCR5 in U937 cells. Then part cells were incubated with mouse anti CCR5 100 μg/ml, and/or rat anti CCR3 10 μg/ml for 30 minutes at 37° C., and corresponding mouse IgG and rat IgG as controls. Chemoattractants RANTES, C19 and C27 were diluted in HEPES-buffered RPMI 1640 medium supplemented with 0.5% BSA to indicate concentration, and placed in the lower wells (28 μl/well). U937 cells stimulated by IFN-γ were resuspended in the same medium at 1×10^6 cells/ml and added to the upper wells (50 μl/well), which were separated from the lower wells by a polyvinylpyrrolidone-free polycarbonate filter with 5-μm pores pre-coated by 0.001% fibronectin. The chamber was incubated for 2 hours at 37° C. in 5% CO2 and 95% air. Filters were removed from the chamber, washed, fixed, and stained with Three Step Stain Set. Cells that migrated were counted in 5 randomly selected high power fields (400×) per well. The group with no Chemoattractants in the lower wells was used as a control. All samples were assayed twice at least. The chemotactic index (CI) was calculated from the number of cells that migrated to the control. Significant chemotaxis was defined as CI>2.

The target of assay [1] is T1, CCR4 (Homo sapiens, UniProt P51679).
T1 construct: The cDNA fragments covering the open reading frames for various chemokine receptors were obtained as follows; expressed in transfected cells; host or cells: HEK293 (transient, electroporation)
T1 sequence (P51679 1-360): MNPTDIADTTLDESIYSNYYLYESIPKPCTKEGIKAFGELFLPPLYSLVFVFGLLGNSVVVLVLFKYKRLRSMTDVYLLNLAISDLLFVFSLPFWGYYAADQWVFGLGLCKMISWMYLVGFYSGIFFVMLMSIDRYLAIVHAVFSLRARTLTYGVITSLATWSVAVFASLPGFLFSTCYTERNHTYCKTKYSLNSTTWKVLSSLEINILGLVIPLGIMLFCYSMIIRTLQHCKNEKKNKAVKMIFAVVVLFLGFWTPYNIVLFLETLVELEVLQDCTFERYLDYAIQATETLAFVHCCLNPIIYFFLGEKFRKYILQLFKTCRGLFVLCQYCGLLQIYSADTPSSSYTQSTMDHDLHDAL
Briefly: Chemotaxis assay (48-well microchemotaxis chamber) of HEK293 cells transfected with CCR4. As to the method:
(§1) HEK293 cells were grown in RPMI 1640 supplemented with 10% heat-inactivated FBS, penicillin (100 U/ml) and streptomycin (100 μg/ml). Every 4×10^6 HEK293 cells in 400 μl were transiently transfected by electroporation with 15 μg of the expression plasmid at 120 V, 20 ms using an electric pulse generator (Electro Square Porator ECM 830, BTX, San Diego, Calif.), and calcium mobilization assay and chemotaxis assays were performed 48 hours later.
(§2) The chemotaxis assay was performed using a 48-well microchemotaxis chamber (Neutroprobe; Cabin John, Md., U.S.A.). Chemoattractants were diluted in HEPES-buffered RPMI 1640 medium supplemented with 0.1% BSA and placed in the lower wells (28 μl/well). HEK293 cells transfected with pcDI-CCR4, -CCR5 were resuspended in the same medium at 2×10^6 cells/ml and added to the upper wells (50 μl/well), which were separated from the lower wells by a polyvinylpyrrolidone-free polycarbonate filter with 8-μm pores. The chamber was incubated for 2 hours at 37° C. in 5% CO2 and 95% air. Filters were removed from the chamber, washed, fixed, and stained with Three Step Stain Set. Cells that migrated were counted in 5 randomly selected high power fields (400×) per well. The chemotactic index (CI) was calculated from the number of cells that migrated to the control. Significant chemotaxis was defined as CI>2. In some experiments, cells were pretreated with TARC, RANTES, purified CKLF-myc protein or secreted CKLF1 peptides for 30 min. at 37° C., or 100 ng/ml PTX (ALEXIS Biochemicals Corporation) for 6 hours at 37° C. prior to subsequent stimulations.

For a further assay, the target named is T2, CCR6 (Homo sapiens, UniProt P51684).
T2 construct: The cDNA fragment covering the open reading frame for CCR6 chemokine receptor was cloned into pEGFP-N1 vector (CLONTECH); expressed in transfected cells; host or cells: HEK293 (transient)
T2 sequence (P51684 1-374): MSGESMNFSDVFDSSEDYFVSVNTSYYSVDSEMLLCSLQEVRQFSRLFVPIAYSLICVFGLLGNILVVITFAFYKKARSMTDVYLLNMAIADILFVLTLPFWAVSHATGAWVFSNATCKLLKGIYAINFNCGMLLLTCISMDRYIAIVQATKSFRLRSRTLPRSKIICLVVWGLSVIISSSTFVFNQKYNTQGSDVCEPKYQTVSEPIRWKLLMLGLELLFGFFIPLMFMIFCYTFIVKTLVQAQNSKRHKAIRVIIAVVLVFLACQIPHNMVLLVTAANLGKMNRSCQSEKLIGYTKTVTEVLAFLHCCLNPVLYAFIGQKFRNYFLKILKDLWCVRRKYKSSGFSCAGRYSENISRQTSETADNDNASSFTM
Put plainly: Internalization of CCR6-EGFP in transiently transfected HEK293 cells. To be noted: HEK293 cells transfected with pCCR6-EGFP; 37° C., 2 hours. On the procedure:
(§3) The cDNA fragment covering the open reading frame for CCR6 chemokine receptor was cloned into pEGFP-N1 vector (CLONTECH). pCCR6-EGFP transiently expressing HEK293 cells were cultured in glass-bottom dishes in RPMI 1640 with 10% FBS. After 16-24 hours of serum starvation, cells were treated with CKLF1 C-terminal peptides or MIP3α at 37° C. for 2 hours. Cells were washed with cold PBS and fixed with 2% paraformaldehyde in PBS. The subcellular localization of CCR6-EGFP protein was visualized using a Leica TCS-NT confocal fluorescence microscope with a 63× oil immersion lens (Wetzler, Heidelberg, Germany). The excitation and emission wavelengths were 488 and 515-540 nm, respectively.

Assay [2] concerns the target T3, CCR5 (Homo sapiens, UniProt P51681).
T3 construct: The cDNA fragments covering the open reading frames for various chemokine receptors were obtained as follows; expressed in transfected cells; host or cells: HEK293 (transient, electroporation)
Briefly: Chemotaxis assay (48-well microchemotaxis chamber) of HEK293 cells transfected with CCR5. As to the method: as §1
as §2, with “In some experiments, cells were pretreated with TARC, RANTES, purified CKLF-myc protein or secreted CKLF1 peptides for 30 min. at 37° C., or 100 ng/ml PTX (ALEXIS Biochemicals Corporation) for 6 hours at 37° C. prior to subsequent stimulations.” left out

Assay [3] deals with T3, CCR5. Put plainly: Calcium flux assay in CCR5-transfected HEK293 cells.
Text: (§4) The cDNA fragments covering the open reading frames for various chemokine receptors were obtained as follows. CCR4, CCR5 and CCR6 receptors were cloned from a K562 cell cDNA library by polymerase chain reaction (PCR). The primers were designed using the sequences from the following GenBank™ submissions: CCR4 (NM_005508.2), CCR5 (NM_000579) and CCR6 (AY242126). The fragments were cloned into an expression vector pcDI (modified in our lab from pcDNA3 vector (Invitrogen), in which the part between BgI II-Kpn I was replaced by the fragment of pCl vector (Promega) digested with BgI II-Kpn I) or pEGFP-N1 vector (CLONTECH) for efficient expression in HEK293 cells. The sequences coding receptors in expression plasmids were confirmed by DNA sequencing, which is consistent with the sequence submitted in GenBank™.
as §1
(§5) HEK293 cells transfected with pcDI-CCR4 or pcDI-CCR5 were grown in specialized glass-bottom microwell dishes (MatTek Corporation, U.S.A.) and loaded with 10 μM fluo-3/AM in HEPES-buffered saline at 37° C. for 1 hour in the dark. The cells were rinsed with HEPES-buffered saline and stimulated with 167 nM secreted CKLF1 peptides and 100 nM TARC or RANTES, respectively. Fluorescence was monitored at 488 nm (excitation wavelength) and 530 nm (emission wavelength) every 5 second using a Leica TCS-NT confocal fluorescence microscope with a 40× oil immersion lens (Wetzler, Heidelberg, Germany). The measurement was completed at room temperature and each field of cells was selected at random. Images were collected at 5 second intervals for 405 seconds. The images were analyzed for relative fluorescence using Leica confocal software. The relative fluorescence was determined using Microsoft Excel. All calcium flux assays were performed in the presence of extracellular calcium (in the absence of EDTA or EGTA) in the assay buffers. Therefore, both intracellular calcium release and extracellular calcium influx were analyzed.

Assay [4] deals with T1, CCR4. Put plainly: Internalization of CCR4-EGFP in transiently transfected HEK293 cells. To be noted: HEK293 cells transfected with pCCR4-EGFP; 37° C., 2 hours. As to the method: as §3, with “CCR4” for “CCR6”, “pCCR4-EGFP” for “pCCR6-EGFP”, “16 to 24” for “16-24”, “hours” for “hours of”, “TARC” for “MIP3α”, “CCR4-EGFP” for “CCR6-EGFP”
Assay [5] addresses T1, CCR4. Briefly: Calcium flux assay in CCR4-transfected HEK293 cells.
Text: as §4, §1, §5

From patent publication US7465453B2, “Polypeptide fragments of CKLF1” (Peking University, priority 2004, dated 2008) come the findings set out here.

Ends that are not written are not given here.

T3 sequence (P51681 whole entry, the tested form may be a part): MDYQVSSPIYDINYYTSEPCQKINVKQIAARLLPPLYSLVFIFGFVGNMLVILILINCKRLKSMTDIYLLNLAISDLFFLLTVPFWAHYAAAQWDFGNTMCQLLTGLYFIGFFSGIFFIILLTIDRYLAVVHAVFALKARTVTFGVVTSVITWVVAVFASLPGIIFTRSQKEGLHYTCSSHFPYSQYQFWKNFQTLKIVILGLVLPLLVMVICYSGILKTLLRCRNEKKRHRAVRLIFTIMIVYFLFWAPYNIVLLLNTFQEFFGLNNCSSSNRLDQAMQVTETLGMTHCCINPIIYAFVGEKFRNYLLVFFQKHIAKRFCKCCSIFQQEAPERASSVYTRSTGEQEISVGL

“CKLF1-myc protein: recombinant CKLF1-myc protein expressed in Drosophila S2 cells and purified from the supernatant (ALIYRKLLFNPSGPYQKKPVHEKKEVL; not fully specified)”: in the assay with U937 cells, the “migration (chemotaxis) of U937 cells” value is reported as “can induce the chemotaxis”. Besides, the “migration (chemotaxis) of transfected cells” value with CCR4 [1] (CCR4-transfected HEK293 cells) is given as “could induce the chemotaxis”.
For “MIP3α: chemokine used as comparison treatment in the CCR6-EGFP internalization assay [reference compound]”, the “internalization of CCR6-EGFP” value with CCR6 is “internalization of chemokine receptors induced by MIP3α”.
Turning to “RANTES: cognate ligand for CCR5 (peprotech), positive control [reference compound]”, the “chemotaxis induced after PTX pretreatment” value with CCR5 [2] (CCR5-transfected HEK293 cells treated with 100 ng/ml PTX at 37° C. for 30 min) was “completely abolished by PTX”. The “desensitization of the receptor to subsequent stimulation with RANTES, C27 or C19 (chemotaxis)” value with CCR5 [2] (HEK293/CCR5, pretreatment 1 mM RANTES or 2 μg/ml C27 or C19, 37° C., 30 min) was “could desensitize the receptor”. Further, the “migration (chemotaxis) of U937 cells” value with U937 cells is “could induce migration”. In the assay with U937 cells (IFN-γ-stimulated U937 cells, mouse anti CCR5 and/or rat anti CCR3), the “chemotactic activity after neutralization of chemokine receptors” value was “obviously inhibited”. The “desensitization of the receptor to subsequent stimulation with the purified CKLF1-myc protein (chemotaxis)” value with CCR4 [1] (CCR4-transfected HEK293, pretreatment) is “could desensitize the receptor”. In addition, the calcium flux result with CCR5 [3] (CCR5-transfected HEK293 cells, 167 nM C27 or C19, 100 nM RANTES) is on record as “induced calcium flux”. In addition, in the assay with CCR5 [3] (CCR5 transfectants, pretreatment with 100 nM RANTES), the “desensitization of the receptor to subsequent stimulation with C27 and C19” value was “desensitized the receptor”.

B1: TARC: cognate ligand for CCR4 (peprotech), positive control (protein)
chain: ARGTNVGRECCLEYFKGAIPLRKLKTWYQTSEDCSRDAIVFVTVQGRAICSDPNNKRVKNAVKYLQSLERS
Take B1: in the assay with CCR4 [1] (CCR4-transfected HEK293 cells treated with 100 ng/ml PTX at 37° C. for 30 min), the “chemotaxis induced after PTX pretreatment” value is “completely abolished by PTX”. For the same molecule, the “desensitization of the receptor to subsequent stimulation with TARC, C27 or C19 (chemotaxis)” value with CCR4 [1] (HEK293/CCR4, pretreatment TARC or 2 μg/ml C27 or C19, 37° C., 30 min) is “could desensitize the receptor”. Besides, the “internalization of CCR4-EGFP” value with CCR4 [4] is “internalization of chemokine receptors induced by TARC”. Besides, the calcium flux entry with CCR4 [5] (CCR4-transfected HEK293 cells, 167 nM C27 or C19, 100 nM TARC) is recorded as “induced calcium flux”. Also, the “desensitization of the receptor to subsequent stimulation with C27 and C19” value with CCR4 [5] (CCR4 transfectants, pretreatment with 100 nM TARC) is on record as “desensitized the receptor”.
